Measurements from the supplement of paper PMC9112550, “Optimization of the antimicrobial peptide Bac7 by deep mutational scanning” (BMC Biology, 2022).

test system: Escherichia coli TOP10; experiment: shrunken log2 fold change of peptide-encoding DNA abundance (4.5 h post-induction vs induction); higher = less antimicrobial activity (less host growth inhibition); details: time post-induction: 4.5 h; library: site-saturation at positions 5, 18, 19, 20
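Also: peptides expressed intracellularly from a pBAD plasmid library in pooled LB shake-flask culture, induced with 0.3% L-arabinose, DNA abundance read by NGS, three biological replicates, DESeq2 with apeglm shrinkage.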

| Sequence | shrunken log2 fold change |
| --- | --- |
| RRIRVRPPRLPRPRPRPVGPPRP | 0.0843 |
| RRIRFRPPRLPRPRPRPMHHPRP | -0.449 |
| RRIRSRPPRLPRPRPRPVILPRP | -0.0746 |
| RRIRFRPPRLPRPRPRPMHVPRP | -0.0102 |
| RRIRIRPPRLPRPRPRPVPQPRP | 0.224 |
| RRIRFRPPRLPRPRPRPIEDPRP | -0.461 |
| RRIRHRPPRLPRPRPRPDHFPRP | -0.169 |
| RRIRCRPPRLPRPRPRPQFQPRP | -0.606 |
| RRIRYRPPRLPRPRPRPRQLPRP | -0.0472 |
| RRIRLRPPRLPRPRPRPTSCPRP | 0.0575 |
| RRIRERPPRLPRPRPRPIPYPRP | -0.00829 |
| RRIRTRPPRLPRPRPRPRLWPRP | 0.154 |
| RRIRARPPRLPRPRPRPAIDPRP | 0.387 |
| RRIRGRPPRLPRPRPRPTSGPRP | 0.917 |
| RRIRMRPPRLPRPRPRPYIVPRP | -0.00174 |
| RRIRERPPRLPRPRPRPNHWPRP | -0.138 |
| RRIRKRPPRLPRPRPRPNDIPRP | 0.0543 |
| RRIRKRPPRLPRPRPRPGMKPRP | 0.516 |
| RRIRIRPPRLPRPRPRPVHCPRP | -0.335 |
| RRIRYRPPRLPRPRPRPDDVPRP | 0.0235 |
| RRIRNRPPRLPRPRPRPVNKPRP | -0.19 |
| RRIRGRPPRLPRPRPRPSTGPRP | -0.0729 |

| Sequence | shrunken log2 fold change |
| --- | --- |
| RRIRERPPRLPRPRPRPHTCPRP | -0.0792 |
| RRIRRRPPRLPRPRPRPWIDPRP | -0.0585 |
| RRIRLRPPRLPRPRPRPAMEPRP | -0.0355 |
| RRIRPRPPRLPRPRPRPDARPRP | 0.58 |
| RRIRQRPPRLPRPRPRPMLSPRP | -0.0514 |
| RRIRWRPPRLPRPRPRPKCWPRP | 0.467 |
| RRIRVRPPRLPRPRPRPIHWPRP | -0.131 |
| RRIRSRPPRLPRPRPRPTCMPRP | 0.0286 |
| RRIRYRPPRLPRPRPRPGQRPRP | 0.212 |
| RRIRHRPPRLPRPRPRPDLYPRP | -0.243 |
| RRIRVRPPRLPRPRPRPFHIPRP | -0.527 |
| RRIRVRPPRLPRPRPRPVFLPRP | -0.339 |
| RRIRYRPPRLPRPRPRPNAWPRP | -0.165 |
| RRIRRRPPRLPRPRPRPNGKPRP | 0.02 |
| RRIRYRPPRLPRPRPRPGKTPRP | -0.0233 |
| RRIRCRPPRLPRPRPRPIRRPRP | 0.119 |
| RRIRHRPPRLPRPRPRPWSMPRP | -0.293 |
| RRIRIRPPRLPRPRPRPSMYPRP | -1.53 |
| RRIRTRPPRLPRPRPRPNEMPRP | -0.235 |
| RRIRNRPPRLPRPRPRPGVHPRP | 0.25 |
| RRIRERPPRLPRPRPRPNHMPRP | -0.31 |
| RRIRSRPPRLPRPRPRPCMQPRP | -0.31 |

| Sequence | shrunken log2 fold change |
| --- | --- |
| RRIRFRPPRLPRPRPRPDPRPRP | 0.182 |
| RRIRDRPPRLPRPRPRPCPIPRP | -0.00104 |
| RRIRFRPPRLPRPRPRPQCRPRP | -0.218 |
| RRIRIRPPRLPRPRPRPMMFPRP | -0.0225 |
| RRIRSRPPRLPRPRPRPICKPRP | -0.494 |
| RRIRYRPPRLPRPRPRPGDDPRP | -0.286 |
| RRIRCRPPRLPRPRPRPFRYPRP | -0.29 |
| RRIRWRPPRLPRPRPRPRHKPRP | -0.0379 |
| RRIRHRPPRLPRPRPRPRAQPRP | 0.0972 |
| RRIRCRPPRLPRPRPRPPPFPRP | 2.05 |
| RRIRARPPRLPRPRPRPRKGPRP | 0.365 |
| RRIRNRPPRLPRPRPRPDHPPRP | -0.0362 |
| RRIRERPPRLPRPRPRPHMMPRP | -1.14 |
| RRIRPRPPRLPRPRPRPLYNPRP | -0.623 |
| RRIRFRPPRLPRPRPRPPNNPRP | -0.445 |
| RRIRHRPPRLPRPRPRPYPEPRP | -0.267 |
| RRIRNRPPRLPRPRPRPCSIPRP | -0.000921 |
| RRIRMRPPRLPRPRPRPTNVPRP | -0.0668 |
| RRIRERPPRLPRPRPRPPGCPRP | 0.124 |
| RRIRLRPPRLPRPRPRPRTVPRP | 1.24 |
| RRIRDRPPRLPRPRPRPPSQPRP | 0.113 |
| RRIRLRPPRLPRPRPRPFQQPRP | 0.0873 |

| Sequence | shrunken log2 fold change |
| --- | --- |
| RRIRLRPPRLPRPRPRPMDKPRP | -0.296 |
| RRIRGRPPRLPRPRPRPKQGPRP | 0.524 |
| RRIRARPPRLPRPRPRPCAVPRP | 0.365 |
| RRIRGRPPRLPRPRPRPGHTPRP | 0.0237 |
| RRIRKRPPRLPRPRPRPLYNPRP | -0.263 |
| RRIRYRPPRLPRPRPRPVKCPRP | -1.32 |
| RRIRIRPPRLPRPRPRPNQSPRP | -0.812 |
| RRIRLRPPRLPRPRPRPYDYPRP | -0.0244 |
| RRIRDRPPRLPRPRPRPMYAPRP | 0.143 |
| RRIRMRPPRLPRPRPRPMREPRP | 0.279 |
| RRIRDRPPRLPRPRPRPMTVPRP | 0.047 |
| RRIRNRPPRLPRPRPRPVAHPRP | -0.0475 |
| RRIRRRPPRLPRPRPRPVSCPRP | -0.121 |
| RRIRMRPPRLPRPRPRPTIEPRP | 0.43 |
| RRIRHRPPRLPRPRPRPPVFPRP | 0.612 |
| RRIRWRPPRLPRPRPRPCIQPRP | -0.394 |
| RRIRVRPPRLPRPRPRPEYNPRP | -0.185 |
| RRIRARPPRLPRPRPRPMMSPRP | 0.186 |
| RRIRARPPRLPRPRPRPDHEPRP | -0.0137 |
| RRIRIRPPRLPRPRPRPMLGPRP | -0.146 |
| RRIRRRPPRLPRPRPRPKAMPRP | 0.431 |
| RRIRPRPPRLPRPRPRPLNQPRP | -0.217 |

| Sequence | shrunken log2 fold change |
| --- | --- |
| RRIRLRPPRLPRPRPRPEMMPRP | 2.57 |
| RRIRARPPRLPRPRPRPNKPPRP | -0.0887 |
| RRIRARPPRLPRPRPRPRQDPRP | 0.34 |
| RRIRKRPPRLPRPRPRPRELPRP | 0.753 |
| RRIRARPPRLPRPRPRPTCEPRP | 0.723 |
| RRIRQRPPRLPRPRPRPESFPRP | 0.0552 |
| RRIRDRPPRLPRPRPRPCVNPRP | 0.0261 |
| RRIRARPPRLPRPRPRPGYDPRP | -0.0224 |
| RRIRRRPPRLPRPRPRPYCPPRP | -0.187 |
| RRIRQRPPRLPRPRPRPFNGPRP | -0.3 |
| RRIRARPPRLPRPRPRPQAIPRP | 0.281 |
| RRIRFRPPRLPRPRPRPYIKPRP | -1.28 |
| RRIRWRPPRLPRPRPRPHCMPRP | 0.0179 |
| RRIRLRPPRLPRPRPRPRPRPRP | 0.823 |
| RRIRFRPPRLPRPRPRPYCMPRP | -0.929 |
| RRIRGRPPRLPRPRPRPWPYPRP | -0.265 |
| RRIRWRPPRLPRPRPRPWVYPRP | -0.384 |
| RRIRHRPPRLPRPRPRPAHCPRP | 0.115 |
| RRIRQRPPRLPRPRPRPHYTPRP | -0.509 |
| RRIRPRPPRLPRPRPRPYFHPRP | -0.522 |
| RRIRCRPPRLPRPRPRPVATPRP | 0.443 |
